Assay results: US20100099619A1

target: neuropeptide Y4 receptor; assay: competition vs [125I]-hPP, Y4-transfected CHO-K1 membranes
Sequence (P50391 whole entry): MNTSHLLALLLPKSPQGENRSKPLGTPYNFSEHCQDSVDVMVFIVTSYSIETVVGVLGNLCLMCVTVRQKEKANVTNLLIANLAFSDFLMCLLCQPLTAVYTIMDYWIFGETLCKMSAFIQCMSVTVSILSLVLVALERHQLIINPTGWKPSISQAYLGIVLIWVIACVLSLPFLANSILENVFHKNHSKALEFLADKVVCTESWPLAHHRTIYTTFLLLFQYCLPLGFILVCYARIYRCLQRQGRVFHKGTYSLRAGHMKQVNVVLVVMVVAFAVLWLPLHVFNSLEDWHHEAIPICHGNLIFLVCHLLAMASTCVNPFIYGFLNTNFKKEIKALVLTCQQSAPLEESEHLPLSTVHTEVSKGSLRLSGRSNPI

Row | Y4 RBA [nM] | Substance
1 | 39 | NPY (human neuropeptide Y) (peptide; modification not given)
2 | 4.5 | PYY (human peptide YY) (peptide; modification not given)
3 | 54 | PYY(3-36) (peptide; modification not given)
